# Where a chain is given by its changes, count along the chain named. In names and notes the source's numbering stands. Several values for one entry are separate records, joined by “and”; a condition that tells them apart may be missing. Equal values may be shown once. Entries after “also recorded” stand apart in the source; their conditions may differ.
# B1: Saccharomyces cerevisiae ScGal2 (Gal2) transporter, SEQ ID NO:32 (Saccharomyces cerevisiae S288C) (protein)
# chain: MAVEENNMPVVSQQPQAGEDVISSLSKDSHLSAQSQKYSNDELKAGESGSEGSQSVPIEIPKKPMSEYVTVSLLCLCVAFGGFMFGWDTGTISGFVVQTDFLRRFGMKHKDGTHYLSNVRTGLIVAIFNIGCAFGGIILSKGGDMYGRKKGLSIVVSVYIVGIIIQIASINKWYQYFIGRIISGLGVGGIAVLCPMLISEIAPKHLRGTLVSCYQLMITAGIFLGYCTNYGTKSYSNSVQWRVPLGLCFAWSLFMIGALTLVPESPRYLCEVNKVEDAKRSIAKSNKVSPEDPAVQAELDLIMAGIEAEKLAGNASWGELFSTKTKVFQRLLMGVFVQMFQQLTGNNYFFYYGTVIFKSVGLDDSFETSIVIGVVNFASTFFSLWTVENLGHRKCLLLGAATMMACMVIYASVGVTRLYPHGKSQPSSKGAGNCMIVFTCFYIFCYATTWAPVAWVITAESFPLRVKSKCMALASASNWVWGFLIAFFTPFITSAINFYYGYVFMGCLVAMFFYVFFFVPETKGLSLEEIQELWEEGVLPWKSEGWIPSSRRGNNYDLEDLQHDDKPWYKAMLE
# B2: ScGal2: S. cerevisiae Gal2 hexose transporter, control; SEQ ID NO:32 (protein)
# chain: B1 chain
# modifications: protein sequence alignmnet of ScGal2
# B3: Lipomyces starkeyi LST1_205437 transporter, wild type, SEQ ID NO: 4 (Lipomyces starkeyi NRRL Y-11557) (protein)
# chain: MGFLGFLNRSQASEPVEKESTATTPSEGRTPQRPLSPAVGVPLEQDFETQLSAKDAPLLAFILGGVASVGGFMFGYQTGQISGFLEMSDFKTRFAACNSQTGQCTFSAARQGTIVGLFSIGTLIGSLIAAPIADRIGRRLTISFWAFFFMIGTVLEISSSHVWVQFAMGRFVGGLGIGALSVVVPMYQSESTPRMIRGVIVSSYQLMVTLGIWLAYMINWGTESLQGSQSWRITNGMSFLWALVLGIAILGLPESPRYAYRVGREEEARKNMARLYKLSPNHPIINLEIQEIQEKLDAERVGGDHPWYEIFTGPRMLYRTILGMVLQAGQQLTGANYFFYYGTTVFSATGLSNSYVTQIILGSVNVGGTIAGLWLIENCGRRKALMGGAAWMFMCFMVFAFVGHFSLDHQNPEATPQAGAALVVFSCLFIIAFAMTWGPIVWAIVGELYPARYRATCMGLATSSNWLFNFLIGFFTTFITGDIDYLYGLVFAGCCFALFFIVYFFVIETKGRSLEEIDTMYVLHVNPINSAKWDSSQLMRDGDGLVNTDDLYLEAGGNRFAKDEHSAHEMIPSHDENAPGPSHTSHADIEKAESSGAESRDAL
# B4: AtSWEET1: Arabidopsis thaliana SWEET1 transporter polypeptide, SEQ ID NO:1 (protein)
# chain: MNIAHTIFGVFGNATALFLFLAPSITFKRIIKNKSTEQFSGIPYPMTLLNCLLSAWYGLPFVSKDNTLVSTINGTGAVIETVYVLIFLFYAPKKEKIKIFGIFSCVLAVFATVALVSLFALQGNGRKLFCGLAATVFSIIMYASPLSIMRLVVKTKSVEFMPFFLSLFVFLCGTSWFVYGLIGRDPFVAIPNGFGCALGTLQLILYFIYCGNKGEKSADAQKDEKSVEMKDDEKKQNVVNGKQDLQV
# modifications: Arabidopsis thaliana SWEET1 (AtSWEET1) transporter polypeptide
# B5: F168A: AtSWEET1 single mutation F168A (protein, UniProt Q8L9J7 1-247, looked up, variant F168A)
# Bidirectional sugar …: B4 chain with F168A
# B6: AtSWEET4: Arabidopsis thaliana SWEET4 transporter polypeptide (protein, UniProt Q944M5 1-251, looked up)
# Bidirectional sugar …: MVNATVARNIAGICGNVISLFLFLSPIPTFITIYKKKKVEEYKADPYLATVLNCALWVFYGLPMVQPDSLLVITINGTGLAIELVYLAIFFFFSPTSRKVKVGLWLIGEMVFVGIVATCTLLLFHTHNQRSSFVGIFCVIFVSLMYIAPLTIMSKVIKTKSVKYMPFSLSLANFLNGVVWVIYALIKFDLFILIGNGLGTVSGAVQLILYACYYKTTPKDDEDEEDEENLSKVNSQLQLSGNSGQAKRVSA
# B7: AtSWEET5: Arabidopsis thaliana SWEET5 transporter polypeptide (protein, UniProt Q9FM10 1-240, looked up)
# Bidirectional sugar …: MTDPHTARTIVGIVGNVISFGLFCAPIPTMVKIWKMKSVSEFKPDPYVATVLNCMMWTFYGLPFVQPDSLLVITINGTGLFMELVYVTIFFVFATSPVRRKITIAMVIEVIFMAVVIFCTMYFLHTTKQRSMLIGILCIVFNVIMYAAPLTVMKLVIKTKSVKYMPFFLSLANFMNGVVWVIYACLKFDPYILIPNGLGSLSGIIQLIIYITYYKTTNWNDDDEDKEKRYSNAGIELGQA
# B8: A175F: AtSWEET7 single mutation A175F (protein, UniProt Q8LBF7 1-258, looked up, variant A175F)
# Bidirectional sugar …: MVFAHLNLLRKIVGIIGNFIALCLFLSPTPTFVRIVKKKSVEEYSPIPYLATLINCLVWVLYGLPTVHPDSTLVITINGTGILIEIVFLTIFFVYCGRQKQRLIISAVIAAETAFIAILAVLVLTLQHTTEKRTMSVGIVCCVFNVMMYASPLSVMKMVIKTKSVEFMPFWLSVFGFLNAGVWTIYALMPFDPFMAIPNGIGCLFGLAQLILYGAYYKSTKRIMAERENQPGYVGLSSAIARTGSEKTANTNQEPNNV
# What was measured:
# [1] = substrate: OC[C@H]1OC(O)[C@H](O)[C@@H](O)[C@@H]1O; assay: cells, lysate or membranes; conditions: other: initial glucose uptake (5 s), 30° C., pH 6.5, 0.2 to 100 mM glucose, ± SEM in Table 1
# [2] = test system: transporter-overexpressing SR8D8; assay: Inhibition of xylose uptake by glucose; type: cell-based, S. cerevisiae; conditions: 25 mM or 100 mM glucose
# Protocol: SR8D8 containing the respective plasmid was grown on selective YPE medium to an OD600 of 1-1.5, harvested by centrifugation, and washed twice in ice-cold uptake buffer (100 mM potassium phosphate, pH 6.5). C14 labeled sugar uptake assay was done according to Boles and Oreb. Radioactivity was analyzed in a Beckman-Coulter LS6500 multi-purpose liquid scintillation counter (Beckman-Coulter, CA, USA).
# Sugar solutions contained 0.135-0.608 μCi of D-[U-^14C]-glucose (290-300 mCi/mmol) or D-[1-^14C]-xylose (55 mCi/mmol) (PerkinElmer, MA, USA). Calculation of Km (Michaelis constant), Vmax (maximal initial uptake velocity), and K (inhibitor constant for competitive inhibition) was done by nonlinear regression analysis and global curve fitting in Prism 7 (GraphPad Software) with values of three independent measurements.
# [3] = test system: SR8D8 expressing transporter; assay: Glucose and xylose mixed sugar flask fermentation (20 g/L each); type: cell-based, S. cerevisiae; conditions: 20 g/L of glucose and xylose, YP medium
# Protocol: (§1) For flask fermentation, a single colony was inoculated to 5 or 25 mL YPE ([…], 1% w/v yeast extract, 2% peptone, 5% ethanol) supplemented with 200 μg/ml of geneticin to obtain seed cultures. […] Flask fermentations were maintained at 30° C. and 250 rpm.
# (§2) A xylose fermenting S. cerevisiae yeast (SR8) with HXT1-7Δ, GAL2Δ deletions was used for transporter screening and characterization (SR8D8). SR8D8 was grown in YPE medium/plate (10 g/L yeast extract, 20 g/L peptone, and 5 g/L ethanol). […] SRD8 strains transformed with plasmid containing KanMX marker conferring resistance to G418 (geneticin) were propagated on YPE supplemented with 200 μg/ml of geneticin. For growth and flask fermentation experiments all media was supplemented with 200 μg/ml of geneticin for plasmid maintenance. Biomass was calculated from the OD600 measured using a Biomate 5 UV-visible spectrophotometer (Fisher, NY, USA). All growth rates were measured using a Bioscreen C plate reader system (Growth Curves USA, Piscataway, NJ, USA). A 2 μL inoculum of fully grown culture was added into 200 μL YP (+200 μg/ml Geneticin) with varying concentrations of different sugars. A wide band filter (420-580 nm) was used to measure optical density. Bioscreen C values represent mean value from three biological replicates. In all cases, the Bioscreen C was set to maintain a temperature of 30° C. and high aeration through high continuous shaking.
# [4] = test system: SR8D8 expressing transporter; assay: Mixed sugar fermentation at industrially relevant sugar concentrations; type: cell-based, S. cerevisiae; conditions: 7% glucose and 4% xylose (70 g/L, 40 g/L)
# Protocol: as §1
# [5] = test system: SR8D8 expressing transporter; assay: Sole glucose or xylose flask fermentation; type: cell-based, S. cerevisiae
# Protocol: as §1, §2
# [6] = test system: SR8D8 expressing transporter; assay: Transporter screening for growth on glucose or xylose (Bioscreen C); type: cell-based, S. cerevisiae; conditions: glucose or xylose containing medium, OD600
# Protocol: ScGal2 expressing SR8D8 were used as a positive control (FIG. 3). Most of the AtSWEETs and putative oleaginous transporters expressing strains were not able to grow on glucose or xylose.
# as §2
molecule,measurement,setting,value
B1,Km,[1],1613 µM and 1600 ± 200 µM
B2,inhibition of xylose transport by glucose (in words),[2],complete xylose inhibition even at the presence of 25 mM glucose
same,glucose and xylose mixed sugar fermentation phenotype,[3],sequential fermentation
same,glucose and xylose mixed sugar fermentation phenotype,[3]; listed as GAL2,transport both glucose and xylose in a sequential manner; also recorded: sequential manner of sugar utilization
same,mixed sugar utilization profile at high sugar,[4],sequential utilization of glucose and xylose
B3,Km,[1],4975 µM
same,Vmax,[1],46.89 nmol/min/mg
B4,glucose and xylose mixed sugar fermentation phenotype,[3],complete preference for glucose with negligible xylose consumption; also recorded: solo glucose fermentation
same,sole sugar fermentation performance,"[5]; glucose or xylose conditions, YP medium",robust glucose fermentation but inefficient xylose fermentation
same,xylose consumption,"[5]; xylose fermentation, within 50 h",5 g/L
same,growth / transport capacity on glucose or xylose,[6],can sustain growth of SR8D8 in glucose and xylose containing medium; also recorded: glucose transporter with almost no xylose transport capacity
B5,glucose and xylose mixed sugar fermentation phenotype,[3],capable of improving both glucose and xylose uptake rate
B6,glucose and xylose mixed sugar fermentation phenotype,[3],co-consumption of glucose and xylose with a faster glucose consumption rate than that of xylose; also recorded: co-fermentation with glucose preference
same,glucose and xylose mixed sugar fermentation phenotype,[3]; listed as SWEET4,simultaneously utilize glucose and xylose
same,growth / transport capacity on glucose or xylose,[6],substantial growth on xylose and glucose; also recorded: both glucose and xylose transport capacity
same,growth / transport capacity on glucose or xylose,[6]; listed as SWEET4,capable of sustaining an efficient growth on glucose or xylose
B7,glucose and xylose mixed sugar fermentation phenotype,[3],simultaneously utilize glucose and xylose
same,growth / transport capacity on glucose or xylose,[6],capable of sustaining an efficient growth on glucose or xylose
B8,glucose and xylose mixed sugar fermentation phenotype,[3],capable of improving glucose and xylose uptake rate
